Assays:
[1] = target: NRP1 expressed on COS cells (COS-NRP1); assay: cell-based or functional assay
[2] = target: the molecule itself; assay: sucrose density gradient sedimentation of C6 cell lysates, anti-NRP1 western blot

collapsed COS-1 cells expressing NRP1 and Plexin-A1 [1]	Molecule	binding result [2]
> 50%	Sema3A (ligand)	–
–	NRP1 on rat C6 glioma cells (receptor, rat (Rat C6 glioma cells), UniProt Q9QWJ9 22-922, looked up, whole, on cells; It is not tied expressly to the C6 cells; also called neuropilin-1; receptor NRP1 on C6 cells) FRSDKCGGTIKIENPGYLTSPGYPHSYHPSEKCEWLIQAPEPYQRIMINFNPHFDLEDRDCKYDYVEVIDGENEGGRLWGKFCGKIAPSPVVSSGPFLFIKFVSDYETHGAGFSIRYEIFKRGPECSQNYTAPTGVIKSPGFPEKYPNSLECTYIIFAPKMSEIILEFESFDLEQDSNPPGGVFCRYDRLEIWDGFPEVGPHIGRYCGQKTPGRIRSSSGILSMVFYTDSAIAKEGFSANYSVLQSSISEDFKCMEALGMESGEIHSDQITASSQYGTNWSVERSRLNYPENGWTPGEDSYREWIQVDLGLLRFVTAVGTQGAISKETKKKYYVKTYRVDISSNGEDWITLKEGNKAIIFQGNTNPTDVVFGVFPKPLITRFVRIKPASWETGISMRFEVYGCKITDYPCSGMLGMVSGLISDSQITASNQGDRNWMPENIRLVTSRTGWALPPSPHPYINEWLQVDLGDEKIVRGVIIQGGKHRENKVFMRKFKIAYSNNGSDWKMIMDDSKRKAKSFEGNNNYDTPELRAFTPLSTRFIRIYPERATHSGLGLRMELLGCEVEVPTAGPTTPNGNPVDECDDDQANCHSGTGDDFQLTGGTTVLATEKPTIIDSTIQSEFPTYGFNCEFGWGSHKTFCHWEHDSHAQLRWRVLTSKTGPIQDHTGDGNFIYSQADENQKGKVARLVSPVVYSQSSAHCMTFWYHMSGSHVGTLRVKLHYQKPEEYDQLVWMVVGHQGDHWKEGRVLLHKSLKLYQVIFEGEIGKGNLGGIAVDDISINNHIPQEDCAKPTDLDKKNTEIKIDETGSTPGYEEGKGDKNISRKPGNVLKTLDPILITIIAMSALGVLLGAVCGVVLYCACWHNGMSERNLSALENYNFELVDGVKLKKDKLNPQSNYSEA	binds

Source: patent publication US20150307589A1 (INSERM INSTITUT NATIONAL DE LA SANTE ET DE LA RECHERCHE …, published 2015)
